Test results published in patent US20240317847A1 (Bayer, published 2024).

Columns and labels:
murine IL-11 [1] = target: T1, murine IL-11 (mouse, UniProt P47873 22-199); assay: SPR (Biacore), 25 C, antibody captured via anti-Fc, IL-11 as analyte, determined in steady state
T1 construct: Invigate recombinant protein; biotinylated when immobilized in the Di-complex ELISA; also called mIL11; mIL-11
T1 sequence: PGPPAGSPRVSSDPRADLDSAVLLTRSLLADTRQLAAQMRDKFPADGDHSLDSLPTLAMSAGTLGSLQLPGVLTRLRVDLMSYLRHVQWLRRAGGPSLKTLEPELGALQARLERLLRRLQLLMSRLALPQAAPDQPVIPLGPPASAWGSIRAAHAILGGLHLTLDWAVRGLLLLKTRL

murine IL-11 [2] = target: T2, murine IL-11 (mouse, UniProt P47873 22-199); assay: cell-based or functional assay
T2 sequence: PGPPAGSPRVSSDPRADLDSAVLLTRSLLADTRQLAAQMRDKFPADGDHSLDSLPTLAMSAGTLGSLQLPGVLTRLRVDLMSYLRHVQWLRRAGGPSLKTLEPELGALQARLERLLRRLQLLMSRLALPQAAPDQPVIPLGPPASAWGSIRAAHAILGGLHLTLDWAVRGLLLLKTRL

human IL-11 [3] = target: T3, human IL-11 (human, UniProt P20809 22-199); assay: cell-based or functional assay
T3 sequence: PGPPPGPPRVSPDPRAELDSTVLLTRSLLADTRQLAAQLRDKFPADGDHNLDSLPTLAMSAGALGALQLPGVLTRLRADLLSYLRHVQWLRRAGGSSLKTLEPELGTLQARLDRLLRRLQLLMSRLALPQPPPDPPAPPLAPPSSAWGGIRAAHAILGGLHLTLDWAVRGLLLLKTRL

rat IL-11 [4] = target: T4, rat IL-11 (rat, UniProt Q99MF5 22-199); assay: cell-based or functional assay
T4 sequence: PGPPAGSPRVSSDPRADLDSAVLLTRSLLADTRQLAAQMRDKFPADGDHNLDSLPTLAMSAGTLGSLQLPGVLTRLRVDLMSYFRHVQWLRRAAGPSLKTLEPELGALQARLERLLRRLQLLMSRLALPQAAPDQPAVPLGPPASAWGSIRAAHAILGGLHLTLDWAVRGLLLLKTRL

cynomolgus IL-11 [5] = target: T5, cynomolgus IL-11 (cynomolgus, UniProt P20808 22-199); assay: cell-based or functional assay
T5 sequence: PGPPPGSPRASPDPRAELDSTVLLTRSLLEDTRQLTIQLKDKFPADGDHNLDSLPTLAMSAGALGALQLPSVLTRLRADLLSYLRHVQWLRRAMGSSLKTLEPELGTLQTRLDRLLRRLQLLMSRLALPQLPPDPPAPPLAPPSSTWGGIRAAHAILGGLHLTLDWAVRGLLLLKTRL

murine IL-11 [6] = target: T1, murine IL-11; assay: SPR (Biacore), 25 C, antibody captured via anti-Fc, IL-11 as analyte
Description: (§1) To assess the binding kinetics and affinity of anti-IL-11 bispecific antibodies as well as their species cross-reactivity profile, binding assays were conducted using surface plasmon resonance (SPR). […] Antibodies were captured either via anti-human Fc IgGs (“Human antibody capture kit”, Order No. BR100839, Cytiva) or via anti-mouse Fc IgGs (“Mouse antibody capture kit, Order No. BR100383, Cytiva) covalently amine coupled to a Series S CM5 sensor chip (Cytiva) depending on the isotype. The amine coupling was carried out according to the manufacturer's instructions using 1-ethyl-3-(3-dimethylaminopropyl) carbodiimide hydrochloride (EDC), N-hydroxysuccinimide (NHS) and ethanolamine HCl, pH 8.5 (“Amine Coupling Kit” BR-1000-50, Cytiva.). Human, mouse, cynomolgus or rat IL-11 was used as analyte at several dilutions within the concentration range from 0.05-200 nM. For binding assays with only one concentration 200 nM IL-11 was used. The sensor surface was regenerated with glycine pH 1.7 after each antigen injection. Obtained sensorgrams were double referenced (subtraction of reference flow cell signal and buffer injection) and were fitted to a 1:1 Langmuir binding model to derive kinetic data using the Biacore T200 Evaluation software or the Biacore Insight software.
(§2) If no value is reported, there was either no binding or very low binding and multiphasic binding behavior.

rat IL-11 [7] = target: T6, rat IL-11 (rat, UniProt Q99MF5 22-199); assay: as above
T6 construct: Invigate recombinant protein; also called rIL11
T6 sequence: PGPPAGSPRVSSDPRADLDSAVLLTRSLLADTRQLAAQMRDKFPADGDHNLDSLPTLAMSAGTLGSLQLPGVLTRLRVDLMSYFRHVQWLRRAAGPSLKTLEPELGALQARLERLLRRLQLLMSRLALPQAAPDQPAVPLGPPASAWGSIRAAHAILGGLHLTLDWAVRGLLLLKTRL
Description: as §1, §2

cynomolgus IL-11 [8] = target: T7, cynomolgus IL-11 (cynomolgus, UniProt P20808 22-199); assay: as above
T7 construct: Invigate recombinant protein; also called cIL11; Macaca IL-11
T7 sequence: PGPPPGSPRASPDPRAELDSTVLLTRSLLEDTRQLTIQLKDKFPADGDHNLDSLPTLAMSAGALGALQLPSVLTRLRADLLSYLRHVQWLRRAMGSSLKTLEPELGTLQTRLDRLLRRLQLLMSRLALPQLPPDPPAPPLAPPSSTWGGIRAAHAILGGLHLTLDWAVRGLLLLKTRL
Description: as §1, §2

human IL-11 [9] = target: T8, human IL-11 (human, UniProt P20809 22-199); assay: SPR (Biacore), 25 C, antibody captured via anti-Fc, IL-11 as analyte; SPR at 25 C
T8 construct: Invigate recombinant protein; biotinylated when immobilized in the Di-complex ELISA; also called hIL11; hIL-11
T8 sequence: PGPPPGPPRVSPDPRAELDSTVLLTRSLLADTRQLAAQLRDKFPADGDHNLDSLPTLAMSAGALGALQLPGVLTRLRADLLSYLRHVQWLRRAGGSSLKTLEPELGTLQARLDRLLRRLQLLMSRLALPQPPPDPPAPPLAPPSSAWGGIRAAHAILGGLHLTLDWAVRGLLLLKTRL

B1: TPP-18087 (antibody, mouse IgG1, V domains shown)
VH: EVQLLESGGGLVQPGGSLRLSCAASGFTFSHYDMNWLRQAPGKGLEWVGVISYDGSNKFYADFVKGRFTISRDNSKNTLYLQMNSLRAEDTAVYYCARTPGSHFDYWGQGTLVTVSS
VL: QSVLTQPPSASGTPGQRVTISCSGSSSNIGNNAVNWYQQLPGTAPKLLIYYDDLLPSGVPDRFSGSKSGTSASLAISGLRSEDEADYYCSAWDDSLNGVVFGGGTKLTVLG
notes: mIgG1, Lambda
Kd (murine IL-11 [1]): 33 nM

B2: TPP-18068 (antibody, mouse IgG1)
heavy: EVQLLESGGGLVQPGGSLRLSCAASGFTFSSYGMHWVRQAPGKGLEWVSVISYDGSYKYYADSVKGRFTISRDNSKNTLYLQMNSLRAEDTAVYYCAAGVPDYWGQGTLVTVSSAKTTPPSVYPLAPGSAAQTNSMVTLGCLVKGYFPEPVTVTWNSGSLSSGVHTFPAVLQSDLYTLSSSVTVPSSTWPSETVTCNVAHPASSTKVDKKIVPRDCGCKPCICTVPEVSSVFIFPPKPKDVLTITLTPKVTCVVVDISKDDPEVQFSWFVDDVEVHTAQTQPREEQFNSTFRSVSELPIMHQDWLNGKEFKCRVNSAAFPAPIEKTISKTKGRPKAPQVYTIPPPKEQMAKDKVSLTCMITDFFPEDITVEWQWNGQPAENYKNTQPIMDTDGSYFVYSKLNVQKSNWEAGNTFTCSVLHEGLHNHHTEKSLSHSPGK
light: QSVLTQPPSASGTPGQRVTISCTGSSSNIGAGYDVHWYQQLPGTAPKLLIYSNNERPSGVPDRFSGSKSGTSASLAISGLRSEDEADYYCAAWDDSLNGPVFGGGTKLTVLGQPKSSPSVTLFPPSSEELETNKATLVCTITDFYPGVVTVDWKVDGTPVTQGMETTQPSKQSNNKYMASSYLTLTARAWERHSSYSCQVTHEGHTVEKSLSRADCS
notes: mIgG1, Lambda
RGA Efficacy (%) (murine IL-11 [2]): 93.6% | RGA IC50 (murine IL-11 [2]): 1.2 nM | RGA Efficacy (%) (human IL-11 [3]): 46.1% | RGA IC50 (human IL-11 [3]): 6.5 nM | RGA Efficacy (%) (rat IL-11 [4]): 94% | RGA IC50 (rat IL-11 [4]): 1.8 nM | RGA Efficacy (%) (cynomolgus IL-11 [5]): 70% | RGA IC50 (cynomolgus IL-11 [5]): 4.1 nM

B3: TPP-18068 (antibody, mouse IgG1)
heavy: EVQLLESGGGLVQPGGSLRLSCAASGFTFSSYGMHWVRQAPGKGLEWVSVISYDGSYKYYADSVKGRFTISRDNSKNTLYLQMNSLRAEDTAVYYCAAGVPDYWGQGTLVTVSSAKTTPPSVYPLAPGSAAQTNSMVTLGCLVKGYFPEPVTVTWNSGSLSSGVHTFPAVLQSDLYTLSSSVTVPSSTWPSETVTCNVAHPASSTKVDKKIVPRDCGCKPCICTVPEVSSVFIFPPKPKDVLTITLTPKVTCVVVDISKDDPEVQFSWFVDDVEVHTAQTQPREEQFNSTFRSVSELPIMHQDWLNGKEFKCRVNSAAFPAPIEKTISKTKGRPKAPQVYTIPPPKEQMAKDKVSLTCMITDFFPEDITVEWQWNGQPAENYKNTQPIMDTDGSYFVYSKLNVQKSNWEAGNTFTCSVLHEGLHNHHTEKSLSHSPGK
light: QSVLTQPPSASGTPGQRVTISCTGSSSNIGAGYDVHWYQQLPGTAPKLLIYSNNERPSGVPDRFSGSKSGTSASLAISGLRSEDEADYYCAAWDDSLNGPVFGGGTKLTVLGQPKSSPSVTLFPPSSEELETNKATLVCTITDFYPGVVTVDWKVDGTPVTQGMETTQPSKQSNNKYMASSYLTLTARAWERHSSYSCQVTHEGHTVEKSLSRADCS
notes: mIgG1, Lambda
Kd (murine IL-11 [6]): 0.35 nM | Kd (rat IL-11 [7]): 0.29 nM | Kd (cynomolgus IL-11 [8]): 3.8 nM | Kd (human IL-11 [9]): 25 nM
